Data published in the Human Domainome abundance scans (Beltran et al. 2025).

B1: Retinoic acid receptor beta, residues 85 to 161; numbered along this chain, P10826 (parent)
chain: YKPCFVCQDKSSGYHYGVSACEGCKGFFRRSIQKNMIYTCHRDKNCVINKVTRNRCQYCRLQKCFEVGMSKESVRND

Variants of: B1
Assay: abundance fitness (aPCA) (normalised: wild type 0, dead -1); higher = more abundant; growth selection in yeast, the domain comes from the species named
Conditions: Homo sapiens

Abundance fitness of substitutions, site by site:
K63: L -0.272, E -0.588, R -0.041, Y -0.37, T -0.11, D -0.413, A -0.306, G -0.525, Q -0.305, C -0.641, H -0.027, W -0.772, I -0.321, N -0.519, P -0.847, S -0.443
Q62: G -0.317, A 0.043, T -0.004, C -0.268, I 0.018, N -0.056, M -0.033, P -0.814, K 0.125, D -0.107, V 0.026, H 0.123, E 0.017, L -0.042, S 0.012, W -0.203
Q57: A 0.158, N -0.021, T -0.251, W 0.104, S 0.144, P 0.141, E 0.268, V -0.385, Y 0.163, C 0.078, K -0.245, G 0.2, D 0.353, H 0.079
E66: G -0.014, C -0.153, F -0.036, L -0.039, N -0.028, A -0.105, M 0.082, D 0.096, I -0.092
Y58: I -0.898, L -0.545, V -0.679, E -0.214, A 0.107, Q -0.259, T -0.501, M -0.237, R -0.325, D -0.131, G -0.134, N -0.634, H -0.111, P -1.13, K -0.147, C 0.046, W 0.107
C59: V -0.941, E -0.916, H -0.817, W -0.823, F -0.872, N -0.834, G -0.758, M -0.732, Y -0.831, R -0.869, K -0.998, S -0.294, Q -0.983, T -0.499, P -0.777, I -0.494, L -0.84, A -0.619
C56: P -0.763, Y -0.567, T -0.668, N -0.953, M -0.768, R -0.928, W -0.893, S -0.749
L61: V -0.499, Y -0.181, Q -0.336, H -0.503, I -0.207, P -0.754, K -0.946, A -0.591, S -0.995, W -0.605, G -0.605, C -0.657, E -0.635, R -0.8, M -0.023, D -0.516, F -0.13
C64: R -0.732, P -0.689, E -0.799, H -0.646, T -0.769, Y -1.17, D -0.996, Q -0.426, N -0.969, I -0.729, V -0.628, S -0.461, L -0.734, G -0.658, M -0.412, K -0.885, A -0.329
R60: W 0.114, M 0.199, C -0.155, L 0.21, P -0.722, D -0.901, V -0.369, K -0.039, G -0.491, S -0.583, I -0.653, Y -0.002, T -0.001, Q -0.003, N -0.845, E -0.598
F65: G -0.442, N -0.128, Q -0.156, K -0.081, M 0.026, V -0.019, H -0.253, A -0.291, I 0.119, R -0.22, S -0.31, T -0.02, Y -0.009, P -0.542, W -0.174, L 0.014, E -0.024, C -0.197, D -0.423
